Assay results taken from US20250034594A1, “RNA-GUIDED GENOME RECOMBINEERING AT KILOBASE SCALE” (THE BOARD OF TRUSTEES OF THE LELAND STANFORD JUNIOR …, priority 2021, published 2025).

B1: SSAP_110: SEQ ID NO: 279; Aneurinibacillus tyrosinisolvens (protein, listed as Aneurinibacillus tyrosinisolvens)
chain: SDLKEKLEKRANETEAAPPSPAQTIAAYLKRMEPEIARALPKHMDVERLTRIALTTIRTNPRLLECTVPSLLGAVMQAAQLGLEPGLLGQCYIIPHGREATFIIGYKGMIDLARRSGNIKSIYAHDVRENDEFEYEYGLHPFLKHRPAMTDRGKFIGVYAVAHFNDGGYQFEFMPYEEIERRKLRSRSYKNGPWVTDYEEMAKKTVIRHMFKYLPLSVEIMRSAAQDETVRPDLTSDPVSIYERPIEGKIITAEDVQPEEIPNVPDAEQGDV
B2: SSAP_168: SEQ ID NO: 337; Romboutsia lituseburensis (protein, listed as Romboutsia lituseburensis)
chain: SNLKNVLKNQEDKGQGITVNPTYAMKQLMIKMKNDIDLALPKNLSSERFQKVSMSAFNNNEKLQNCEPTTFIAAMMQSAQLGLEPNTPLGQVYLIPHNLNGVDKVQFQVGYKGLLQLAHRSGKLKTLYAHEVKENDEFEIDYGLEQKLIHKPLLKGNRGDVIGYYAVYHLEPSGYSFEFMTYDEVAKHGKKYSKDFEGGIWEKDFDSMAKKTVIKKLLKYAPLSIEMQKAVAFDESVKSSIDSDMLLVESIGE
B3: SSAP_140: SEQ ID NO: 309; Staphylococcus equorum (protein, listed as Staphylococcus equorum)
chain: ATNETLKQKVVERKPNGVKEQSPKTQLNHLLKKMAPEIQRALPKHMDSDRMARIAMTAVSNTPKLLECDQMSFIAALMQASQLGVEPNTGLGQAYLIPYAGKVQFQLSYKGLIDLATRSGQYKSIYAHEVYTNDEFEYRYGLFKDLIHIPSQEPEGNPIGYYAVYHLKNGGYDFVYWTRERVDKHAKEFSQAVQKGWTSPWITNYDAMAKKTVLKEVLKYAPKSIEMNKAVENDSTIKEEIDKDMSTVIDVTDYSEVEEQESLETGGQTSK
B4: SSAP_85: SEQ ID NO: 254 (protein)
chain: TASKQTDIFSFVSGGEDITITLADIKNYFCANATDQECVLFGQLCKANGLNPWLKEAYLIKYDKNAPAAMVTGKDAYMKRANEHPAFDGYEAGVKVYLPDVGQVEYREGTAYYEDLGEQLIGGYAKVYRKDRSRPYYEEVPLKEYDTKQSKWKTSPATMIRKVALVHALREAFPTNIQGMYDADETPYAADYEGSFREMDDPTPAPSMRGRIAPAPVADPLEDLEADVIEAGDVE
B5: SSAP_227: SEQ ID NO: 396; Streptococcus parauberis (protein, listed as Streptococcus parauberis)
chain: ANQLTVVNTLQSDAVKEKFEAVMGEKANGFVSSVLSVVTNNNILSKADFNSVYTSAMKAAVLDLPVEPSLGMAHIVPYKGKAQFQIGYKGLIQLALRSGQVVGLNAGKVYEGQFKSFNALTEKLDIVDIYNPKKDEPIVGYFAYMKLSNGFEKTTYWTKEQVEEHGKKYSQSYDSKFSPWQTNFDAMARKTVLKSILSTYAPLTIEMQNANDFDNGKNTGIEPLEVKDVTPETDNESLLTDLLEDEPSVNTETGEIIEDTELDLDYGQINAK
B6: SSAP_251: SEQ ID NO: 420; Hathewaya proteolytica (protein, listed as Hathewaya proteolytica)
chain: ADSKKELILKESYSVLDRLIETKISAMPKDFNRTRFLQNCMTVLQDTKDIEKCQPISVARTLLKGAFLGLDFFQKECYAIPYGGTLQFQTDYKGETKMAKKYSIRPIKDIYAKVVREDDLFEEEIKEGQQFVNFKPIPFSDKPIIGAFAVVLYQDGGMEYETMSKTQIEGIRDNFSKMKNGLMWTKTPEEAYKKTVLRRLTKKIEKDFDTIEQAKTYEETSDSEFKKEEKCNEKSVFDVEYSEVESEELEQQTMLENSPFGGEQ
B7: SSAP_62: SEQ ID NO: 231 (protein)
chain: SEISKAVATQQNPLAVVARYKRELGTVLPTVLRQDPDRWLMAAENAARKNPDIMAVTKADQGASYMRALVECARLGHEPGSKDFHFIKRGNAISGEESYRGIIKRVLNSGFYRSVVARTVFSNDTYSFDPLTDIVPNHVPAQGDRGKPLSAYAFAVHWDGTPSTVAEATPERIATAKAKSFASDKPTSPWQLPTGVMYRKTAIRELEPYVHVAPEPQPRRHLDGTVGGIPATDFDVDDGDVLDITADQLAEAGEIV
B8: SSAP_28: SEQ ID NO: 197 (protein)
chain: AITPNPIPAQDGSPIPSPDDIVGELARRKIYAGIPDDDVALALALCQKYGFDPLLKHLVLLATKDRDETTGQGQKHYNAYVTRDGLLHVAHTSGMLDGLETIQGKDDLGEWAEAVVYRKDMSRPFRYRVYLSEYVREAKGVWKTHPQAMLTKTAEVFALRRAFDVALTPFEEMGFDNQNIAGDTGPSPKTGFTEKAGFTGNTDFSAEASLPGKARFSTEAGLTDMTVIPPNRVTGSIPETSRLNTSAGSTGRQRRQLF
B9: SSAP_247: SEQ ID NO: 416; Ruminococcus sp. CAG: 579 (protein, listed as Ruminococcus sp.)
chain: NERTNLQYAPAPVERFKECLNSHEIKARLKNSLKNNWTQFQTSMLDLYSGDAYLQKCDPMAVALECVKAATLDLPISKSLGFAYVVPYNNVPTFTLGYKGLIQLAQRTGQYRTINADVVYEGEIRGADKLSGMVDLSGERTGDEVVGYFAYFKLINGFEKMIYMTRAEAEKWRDDYSPSAKSKYSPWRTDFDKMALKTCIRRLISKYGIMSVEMQGVMTEEAEPRAAAAAKRAEETVQANANSKVIDIDAAPPAANESPAEAAPQPDF
B10: SSAP_248: SEQ ID NO: 417; Peptoniphilus senegalensis (protein, listed as Peptoniphilus senegalensis)
chain: TNQIARKPVNEIKNVLSVPSVRNLFDNALADNAGAFVSSLIDLYGGDSYLQNCEPKDVVMEALKAATLKLPINKNLGFGYVVPFKNKNGKLVPTFIIGYKGLIQLAMRTGQYKAINSGIIYEGMEIKEDVLRGTLEIKGSKQSEKIKGYFAYFQLINGFEKALYMDVEEAADWGRKYSKSFAKGPWTTEFDAQAQKTCLRRLLSKYGVLSTEMQRLEKTEEDVDIAVGTIENNAVEELNIPSSQADYIVDEETGEILDDEEIVAPF
B11: SSAP_259: SEQ ID NO: 428; Virgibacillus chiguensis (protein, listed as Virgibacillus chiguensis)
chain: ATNSSLKNQIANKGNGNQNTPQGYTVKQLMSASSVKNRFEETLGKKAPQFMASVINLVNGDTNLQKCDQMSVVSSAMVAAALDLPIDKNLGYAWVVPYGNKATFQMGYKGYIQLALRTGQYKNINVIEVYEGEVKSFNRLTEEIELEFEGKESDKVIGYVGYFELINGFRKTVYWSKDEIERHKKRFSKTGFAWKDNYDAMAKKTVIRNMLNKWGILSIDMQTAVTTDGNAVTQDFEQEDSGLVIDAEFSEVNEASEGQQEIKFENADA
B12: SSAP_61: SEQ ID NO: 230 (protein)
chain: ATSLKRAVTGDGKPATVQQLLTNPKIKSQIALALPQHLTPERLTRIVLTEIRRTPALAKCKPESLLAAVMQCAQLGLEPGGSLGHAWLMPFKNEVQFIIGYRGMIDLARRSGQVLSIEARGVYESDTFHVSFGLEPDLTHQPDWDPADRGKLAFVYAVARLKDGGFQFDVMSRAEVEKIRAQSPAGKSGPWVTHFEEMAKKTVIRRLFKYLPVSVEMARAVGLDEAAERGEQSDAIDADCVIESEEEATPEEKGDSAA
B13: SSAP_244: SEQ ID NO: 413; Nicoletella semolina (protein, listed as Nicoletella semolina)
chain: LKNADPQSVFNAACMAATLNLPIQNGLGFAYIVPYQNKKEKKTEAQFQLGYKGLIQLAQRSGQFKRLVAVPVYEKQLIAEDPINGFEFDWKQKPENGEKPIGYYAYFKLLNDFTAELYMTTHEVDEHAQRYSQTYRTYLDKKSKGQWASSVWADNFEAMALKTVMKLLLSKQAPLSVEMQQAVLADQAVVKNVETNEFSYVDNQIEEAEYTELKVSTDIFEKCKQSILNKETTLQELCDSGYEFSQEQYAELEKLEVE

What follows are molecules tested on gene editing with dCas9 (assay: Screen of 322 new SSAP proteins, gene editing activity with dCas9 (Table 5)). Details: not given.
Assay type: cell-based
Design: dCas9 with SSAP activity: scale not given here
Method in brief: (§1)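 The 322 SSAP proteins were found in sequence data and then synthesized. Each was screened for gene editing activity when paired with Cas9 and with dCas9.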

First: B1
Second: B2
The “dCas9 with SSAP activity” value of the first is higher: −5.104 for the first, −5.210 for the second.

Going from B3 to B4, the “dCas9 with SSAP activity” value falls from −5.000 to −5.091.

Going from B5 to B6, the “dCas9 with SSAP activity” value falls from −4.819 to −5.041.

First: B7
Second: B8
The “dCas9 with SSAP activity” value of the first is higher: −4.940 for the first, −4.957 for the second.

Compared with B9, B10 is lower in “dCas9 with SSAP activity” value: 0.549 for the first, −5.272 for the second.

Going from B11 to B12, the “dCas9 with SSAP activity” value falls from −4.841 to −5.258.

With B13 the “dCas9 with SSAP activity” value was −4.966.

Same assay, conditions: normalized

Compared with B1, B2 is higher in “dCas9 with SSAP activity (normalized)” value: −1.491 for the first, −0.836 for the second.

Compared with B3, B4 is lower in “dCas9 with SSAP activity (normalized)” value: −0.780 for the first, −1.071 for the second.

Going from B5 to B6, the “dCas9 with SSAP activity (normalized)” value rises from −0.774 to −0.760.

First: B7
Second: B8
The “dCas9 with SSAP activity (normalized)” value of the first is higher: −0.604 for the first, −0.886 for the second.

Compared with B9, B10 is lower in “dCas9 with SSAP activity (normalized)” value: 0.332 for the first, −0.814 for the second.

First: B11
Second: B12
The “dCas9 with SSAP activity (normalized)” value of the first is lower: −1.414 for the first, −0.804 for the second.

B13 was tested, and the “dCas9 with SSAP activity (normalized)” value was −0.819.

What follows are molecules tested on gene editing with Cas9 (assay: Screen of 322 new SSAP proteins, gene editing activity with Cas9 (Table 5)). Details: not given.
Assay type: cell-based
Design: Cas9 with SSAP activity: scale not given here
Method in brief: as §1

Going from B1 to B2, the “Cas9 with SSAP activity” value rises from −2.674 to 0.735.

Compared with B3, B4 is higher in “Cas9 with SSAP activity” value: −1.374 for the first, −0.312 for the second.

First: B5
Second: B6
The “Cas9 with SSAP activity” value of the first is higher: −0.330 for the first, −0.983 for the second.

Compared with B7, B8 is higher in “Cas9 with SSAP activity” value: −2.135 for the first, 0.503 for the second.

First: B9
Second: B10
The “Cas9 with SSAP activity” value of the first is lower: −2.602 for the first, −0.854 for the second.

Compared with B11, B12 is higher in “Cas9 with SSAP activity” value: −2.773 for the first, −1.348 for the second.

In the case of B13, the “Cas9 with SSAP activity” value is reported as −8.469.

Same assay, conditions: normalized

Compared with B1, B2 is higher in “Cas9 with SSAP activity (normalized)” value: −0.477 for the first, 1.158 for the second.

Compared with B3, B4 is higher in “Cas9 with SSAP activity (normalized)” value: −0.848 for the first, −0.125 for the second.

Compared with B5, B6 is lower in “Cas9 with SSAP activity (normalized)” value: −0.310 for the first, −1.345 for the second.

First: B7
Second: B8
The “Cas9 with SSAP activity (normalized)” value of the first is lower: −1.289 for the first, 0.506 for the second.

Compared with B9, B10 is higher in “Cas9 with SSAP activity (normalized)” value: −3.388 for the first, −1.210 for the second.

First: B11
Second: B12
The “Cas9 with SSAP activity (normalized)” value of the first is higher: −0.529 for the first, −0.539 for the second.

Each molecule was assayed on gene editing with Cas9 and dCas9 (assay: Screen of 322 new SSAP proteins, activity across all experiments (Cas9 and dCas9, Table 5)). Details: not given.
Assay type: cell-based
Design: scale not given here
Method in brief: as §1

First: B1
Second: B2
The “Activity across all experiments” value of the first is lower: −3.889 for the first, −2.237 for the second.

Compared with B3, B4 is higher in “Activity across all experiments” value: −3.187 for the first, −2.702 for the second.

Compared with B5, B6 is lower in “Activity across all experiments” value: −2.575 for the first, −3.012 for the second.

Compared with B7, B8 is higher in “Activity across all experiments” value: −3.538 for the first, −2.227 for the second.

First: B9
Second: B10
The “Activity across all experiments” value of the first is higher: −1.027 for the first, −3.063 for the second.

First: B11
Second: B12
The “Activity across all experiments” value of the first is lower: −3.807 for the first, −3.303 for the second.

With B13 the “Activity across all experiments” value was −6.718.
